Assay results as given in the supplement of paper PMC12042874.
± gives the uncertainty stated by the source.

Experiment: amyloid nucleation score (Sup35N fusion, yeast selection) (log enrichment); library NNK2; higher = more nucleation; inactive = no reads after selection
Summary of the method: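 The nucleation score is a DiMSum log enrichment of output over input reads, centred on the mode score of non-aggregating sequences. Sequences under 100 input reads were excluded, and reads came from Illumina sequencing of plasmid inserts. Psi-negative yeast expressing Sup35N fused to peptides of 20 random codons were induced with 100 μM copper sulfate for 24 hours and grown 7 days at 30°C on medium lacking adenine and uracil. Random libraries had three technical output replicates.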

Row | Substance | amyloid nucleation score
1 | TTFMRVVLFAPVLYMYGKNR | 5.492 ± 0.043
2 | SFFNRESGIWWRGSSWFVLV | -0.711 ± 0.48
3 | WNGGQWGAWPLCSNVCAMRS | 7.7 ± 0.062
4 | FSSSYCNVYYWFYMFFHWG | 1.25 ± 0.14
5 | DRMLCWDLGVIKNVLRTRVL | -0.354 ± 0.55
6 | HNGSNFGTWSQGSLRHVRAR | -0.023 ± 0.31
7 | MGMAHFDSQPLGYILGASMC | -0.727 ± 0.79
8 | KDHRSLSGRDMFRGTLVVVM | 0.328 ± 0.19
9 | QSQSSNCYDFIRTNDRKSIC | inactive
10 | EVMEFSNDFSRIFFAFKGFV | -0.665 ± 0.78
11 | RVYLFLELIRALSFRTNHCG | -0.245 ± 0.76
12 | NYSYMSMHTSCLSKTPSSRA | -1.42 ± 1.1
13 | VINSLMWKFTVIMRGVMNRI | 0.12 ± 0.25
14 | GLGYLMINYMRISWWAMYCA | 0.235 ± 0.61
15 | IVRELAVVLKKFYLFALFLR | -0.882 ± 0.62
16 | CRFKVQQMTMENLAQMLVKG | 1.15 ± 0.68
17 | GSFLFYCILPIYFLGAWMRV | -1.4 ± 0.78
18 | KLWAPWYNLWLFALTIVCDI | 0.343 ± 0.64
19 | YRYLLVLSWRSMFAHRLLPS | 1.5 ± 0.5
20 | VWYSDDWSWWGARRLCKNRR | 0.236 ± 1.1
21 | DWFVSGTSDRVVGNSAGGGV | 0.589 ± 0.66

Row | Substance | amyloid nucleation score
22 | MIVMLESLRRTTSQP | 1.69 ± 0.21
23 | MCYCLYNVGPCGDGH | 1.23 ± 0.28
24 | LDSWRPN | -0.393 ± 0.39
25 | NRDFMCESVRNCTLALMIGS | inactive
26 | GSWLIEMCEVVSNSMTSMGP | 1.29 ± 0.3
27 | VRRLLEAFWARKFFLVAITQ | -0.237 ± 0.79
28 | RALLCGSDVSKRNHGRSFVF | 0.05 ± 1
29 | RWAFHCKSRDVFNMRKL | inactive
30 | LISKSGSFMNMLGTGDRAR | 0.005 ± 1
31 | IDLFFAYSHRV | 4.501 ± 0.044
32 | PAIISFQYLFGRRSELEKM | 5.572 ± 0.047
33 | SCKKCMSYVVVVNIVRHICM | 1.86 ± 0.11
34 | ALGSRINYQKGLMQNRTGKG | -0.649 ± 0.76
35 | VLRYLDFDYRLELFIYVMHR | -1.48 ± 1.1
36 | ICPPAWFKRVNDGGVYALNE | 0.904 ± 0.48
37 | NYMRVNWLLFSSSQPVICVG | 0.107 ± 0.79
38 | LRFFHQSL | inactive
39 | YSIFHFYLKGFGSTW | inactive
40 | IFDIWTSIAVRDLLLNGRSW | 0.561 ± 0.31
41 | YVMNQPDKVWSHIESGNKRH | -1.34 ± 0.62
42 | HWYLRSV | 0.239 ± 0.43

Row | Substance | amyloid nucleation score
43 | SRKSFLLCILLCSITLPLAR | -1.09 ± 0.44
44 | NIRLRFCFRQMEWHNRFRDC | 3.93 ± 0.069
45 | YLTLTYPLLCLALNNLSVVL | 2.38 ± 0.15
46 | GYGSSYLMQARSNRRISVFL | -0.758 ± 0.79
47 | MVRVYSVCDKDHQMYNHFFR | 0.67 ± 0.44
48 | WWFTAIGCSVGRLGSFNR | 2.06 ± 0.16
49 | VWTLYYHHIGSAFSTCNRLF | 4.5 ± 0.062
50 | MAKSCGRSCTCSRSKVSVGG | 0.52 ± 0.57
51 | ALSSFIGVRNLQAQGHFTQI | 0.638 ± 0.36
52 | ITDGENSFAFLSNRDSS | inactive
53 | CVILLVIFMLYIYWFSDMFL | -0.721 ± 0.63
54 | LVLRRWMSVRYFMGLTMKVR | inactive
55 | MDLYCD | inactive
56 | LMFCIENLAVMESELMGSCR | 0.464 ± 0.62
57 | SSSEVSFSCYVVDVQLS | -0.603 ± 0.49
58 | AELLYMFWACNFSWSMPL | -0.986 ± 0.76
59 | FFVESRSCSGYKMMKRCLDV | 1.54 ± 0.15
60 | LMLIVQDPCLSEINFKLDSG | 4.59 ± 0.11
61 | LNIFI | 2.96 ± 0.062
62 | RRLFRLVVYFLPNR | inactive
63 | YRPCGRTSPCGSGYKVSNEF | 1.57 ± 0.15

Row | Substance | amyloid nucleation score
64 | SRGWTRMRSYVVSSDFILLK | 0.178 ± 0.48
65 | SARIGISRFCPHAVSPVITK | inactive
66 | TSFGWSGSCKLMYSMSTSGT | 0.636 ± 0.3
67 | MFWKTWGVNCQATNRMEIRL | 2.99 ± 0.055
68 | LAFAILFPFGSLRDGST | 0.585 ± 0.8
69 | NRYVFLGHCVPVRGATHFLV | 0.173 ± 1.1
70 | CSLLGNFYILGYWATFMASD | -1.57 ± 0.53
71 | PITLTRASALLCKYYAFWTF | 1.14 ± 0.37
72 | ANRNRYNLHWDMG | 0.946 ± 0.6
73 | CNHFMTFRWWLVEQAGSMLA | 0.044 ± 1.1
74 | SKCCASLTQLITTGVLAYRA | 0.489 ± 0.49
75 | EYRLFCCWE | 6.04 ± 0.072
76 | RIKGSGGPNVLGWFRMVLCS | 0.284 ± 1.1
77 | LVPGYWYMWVTGNVKRVFCD | -1.54 ± 0.62
78 | FNVSVCCG | 0.607 ± 0.65
79 | GHVQSWGCVVLHEFSSISPE | 5.488 ± 0.05
80 | SLMKKTAGLFNVYVPSIGSS | 0.378 ± 0.37
81 | HMYVGHGLNVFAYISMLGVY | inactive
82 | CNRCIQRMRASMTDSVFSGV | -1.35 ± 0.49
83 | FFYALGYRISDAMEIRRVGS | 2.35 ± 0.059
84 | GCLLLPKGASHKIDYCGSDV | 0.396 ± 0.35
